Reference: paper PMC11196578

Target: MPXV E5_∆N (Mpox virus, UniProt A0A7H0DN89 323-785)
Experiment: cryo-EM (2.67 A)
Settings: protein: recombinant; tags: SUMO fusion; protease-treated (ULP or TEV); chain copies: 6

MPXV E5_∆N, sequence (A0A7H0DN89 323-785): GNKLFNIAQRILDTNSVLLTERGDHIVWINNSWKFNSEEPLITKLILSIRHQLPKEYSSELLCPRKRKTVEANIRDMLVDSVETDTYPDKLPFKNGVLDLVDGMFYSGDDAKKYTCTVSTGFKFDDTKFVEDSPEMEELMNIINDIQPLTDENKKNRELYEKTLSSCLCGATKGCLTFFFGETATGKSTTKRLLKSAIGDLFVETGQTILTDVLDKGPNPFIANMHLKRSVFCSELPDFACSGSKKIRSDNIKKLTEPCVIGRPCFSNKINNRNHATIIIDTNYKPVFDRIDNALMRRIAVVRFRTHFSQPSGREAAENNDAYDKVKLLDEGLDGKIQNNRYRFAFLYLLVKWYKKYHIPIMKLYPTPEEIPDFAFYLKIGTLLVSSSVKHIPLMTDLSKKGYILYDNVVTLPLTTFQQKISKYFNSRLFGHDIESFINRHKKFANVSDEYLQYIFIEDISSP

B1: Forked DNA (mixed)
DNA 1: AACGAGTCAAGCGCATCCCGTTTTTTTTTTTTTTT
DNA 2: TTTTTTTTTTTTTTTCGGGATGCGCTTGACTCGTT
  binding result: binds
